Patent US20260285956 (published 2026)

Target: soluble TDP-43 (human)
Test: SPR

Chain of soluble TDP-43 (human) (chain, as listed by the source): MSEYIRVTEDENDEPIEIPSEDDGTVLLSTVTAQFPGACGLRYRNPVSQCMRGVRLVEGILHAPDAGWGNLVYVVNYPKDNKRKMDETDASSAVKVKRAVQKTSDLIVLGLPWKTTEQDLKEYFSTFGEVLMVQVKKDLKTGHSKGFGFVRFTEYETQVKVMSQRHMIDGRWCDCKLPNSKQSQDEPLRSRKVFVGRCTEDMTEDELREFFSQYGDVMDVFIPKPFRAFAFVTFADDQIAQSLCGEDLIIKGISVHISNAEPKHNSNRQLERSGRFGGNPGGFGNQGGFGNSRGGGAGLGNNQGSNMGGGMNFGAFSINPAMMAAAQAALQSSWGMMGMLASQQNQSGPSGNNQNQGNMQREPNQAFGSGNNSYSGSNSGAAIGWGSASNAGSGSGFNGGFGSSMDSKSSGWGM

Binder | Kd
ACI-7071-801H1-Ab1 (antibody, V domains shown) VH: EVQLQQSGPELVKPGASVKISCKTSGYTFTEYTMHWVKQSHGQSLEWIGGIHPNNGGTIYNQKFKGRATLTVDKSSSTAYMEFRSLTSDDSAVYYCASPCWGQGTSVTVSS VL: not shown | 0.75 nM
ACI-7071-704H9-Ab1 (antibody, V domains shown) VH: EVQLVESGGDLVKPGGSLKLSCAASGFTFANYAMSWIRQTPEKRLEWVATISGGGLYINYPANLKGRFTISRDNAKNNLYLQMSHLKSEDTAMYYCVKDRGQNWSWFAYWGQGTLVTVSA VL: QLVLTQSSSASFSLGASAKLTCTLSSQHSTYTIEWYQQQPLKPPKYVMELEKDGSHSTGDGIPDRFSGSSSGADRYLSISNIQPEDEAIYICGVGDTIKEQFVYVFGGGTKVTVL | 0.23 nM
ACI-7071-707A6-Ab1 (antibody, V domains shown) VH: EVQLVESGGVLVKPGGSLKLSCAASGFIFSSFSMSWVRQNPEKRLEWVATISAAGRYIYYPDNVKGRFTISRDNAKNNLYLYMSHVRSEDTAIYYCVKDRGLNWSWFAYWGQGTLVTVSA VL: QLVLTQSSSASFSLGASAKLTCTLSSQHSTYTIEWYQQQPLKPPKYVMELKKDGSHSTGDGIPDRFSGSSSGADRYLSISDIQPEDEAVYICGVGDTIKEQFVYVFGGGTKVTVL | 0.11 nM

Results, then the binder that gave them:

Kd | Binder
0.2 nM | ACI-7071-806H5-Ab1 (antibody, V domains shown) VH: DVKLEDSGGGLVQPEGSMKLSCVASGFIFSDAWMAWVRQSPEKGLEWVAEIRGRASSHATYYAESVKGRFTISRDDSKSSVYLQMNSLRAEDTGVYYCTRGVNYWGQGTALTVSS VL: not shown
0.38 nM | ACI-7071-810H12-Ab1 (antibody, V domains shown) VH: QVQLQQSGAELVRPGASVKLSCKALDYTFTDYEMHWVKQTPVHGLEWIGAVHPRSGGTVYNQRFRAKATLTADKSSSTAFIELSSLTSEDSAVYFCTYYGYDEIYWGQGTLVTVSA VL: DVVMTQISFSLPVSLGDQASISCRSSQSLVHSDGTTYLHWYLQKPGQSPKLLIYKVSNRFSGVPDRFSGSGSGTDFTLKISRVEAEDLGVYFCSQSTHAPYTFGGGTKLEIK
